Read-outs that look alike come from different tables or passages of the source.
Key:
[1] = molecular target: T1, mECD: full-length extracellular region of mouse MuSK (E22 to T494) with C-terminal Avi- and His6-tags (mouse, UniProt Q61006 22-494, biotinylated in vitro using the BirA enzyme); assay: bead-binding titration, Fab format: antigen immobilized on streptavidin beads, MFI by flow cytometry, curve is the 1:1 fit
T1 construct: range 22-494; also called mouse ECD; not shown: Avi- and His6-tags
T1 sequence (looked up): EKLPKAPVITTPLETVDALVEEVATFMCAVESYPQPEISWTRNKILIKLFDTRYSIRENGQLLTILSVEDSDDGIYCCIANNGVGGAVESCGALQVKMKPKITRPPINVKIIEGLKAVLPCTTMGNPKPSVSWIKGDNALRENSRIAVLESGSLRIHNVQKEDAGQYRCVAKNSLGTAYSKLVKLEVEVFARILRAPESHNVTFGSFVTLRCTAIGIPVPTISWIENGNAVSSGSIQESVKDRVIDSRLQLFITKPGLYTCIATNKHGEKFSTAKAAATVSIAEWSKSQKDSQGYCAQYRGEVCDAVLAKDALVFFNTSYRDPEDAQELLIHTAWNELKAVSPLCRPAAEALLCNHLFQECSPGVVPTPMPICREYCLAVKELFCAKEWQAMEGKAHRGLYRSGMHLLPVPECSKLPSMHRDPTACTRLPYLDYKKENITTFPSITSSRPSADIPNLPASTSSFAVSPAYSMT

[2] = molecular target: T2, hFz: Fz domain and C-terminal flanking sequence of human MuSK (K314-T495) with C-terminal Avi- and His6-tags (human, UniProt O15146 314-495, biotinylated in vitro using the BirA enzyme); assay: as above
T2 construct: also called human Fz; not shown: Avi- and His6-tags
T2 sequence: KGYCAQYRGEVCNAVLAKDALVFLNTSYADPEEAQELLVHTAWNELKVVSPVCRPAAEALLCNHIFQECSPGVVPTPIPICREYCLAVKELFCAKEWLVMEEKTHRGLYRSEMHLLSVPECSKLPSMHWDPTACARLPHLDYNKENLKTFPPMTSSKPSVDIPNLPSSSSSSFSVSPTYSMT

[3] = molecular target: T3, hECD: full-length extracellular region of human MuSK (E22 to T495) with C-terminal Avi- and His6-tags (human, UniProt O15146 22-495, biotinylated in vitro using the BirA enzyme); assay: as above
T3 construct: also called human ECD; not shown: Avi- and His6-tags
T3 sequence: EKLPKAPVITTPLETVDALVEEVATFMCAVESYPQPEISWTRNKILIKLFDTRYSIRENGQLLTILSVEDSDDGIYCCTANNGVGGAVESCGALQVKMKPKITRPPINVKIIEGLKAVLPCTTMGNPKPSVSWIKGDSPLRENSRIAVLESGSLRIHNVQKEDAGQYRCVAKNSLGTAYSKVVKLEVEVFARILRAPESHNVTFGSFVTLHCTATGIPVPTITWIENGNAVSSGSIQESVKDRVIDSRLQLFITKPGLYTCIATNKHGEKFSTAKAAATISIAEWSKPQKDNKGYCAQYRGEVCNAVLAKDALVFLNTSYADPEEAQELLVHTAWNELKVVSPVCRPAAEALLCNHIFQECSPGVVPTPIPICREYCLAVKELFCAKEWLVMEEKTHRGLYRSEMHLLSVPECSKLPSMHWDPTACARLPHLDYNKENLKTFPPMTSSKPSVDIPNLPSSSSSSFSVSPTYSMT

[4] = molecular target: T4, mFz: Fz domain and C-terminal flanking sequence of mouse MuSK (D307 to T494) with C-terminal Avi- and … (mouse, UniProt Q61006 307-494, limits assumed, biotinylated in vitro using the BirA enzyme); assay: as above
T4 construct: also called mouse Fz; not shown: Avi- and His6-tags
T4 sequence (looked up): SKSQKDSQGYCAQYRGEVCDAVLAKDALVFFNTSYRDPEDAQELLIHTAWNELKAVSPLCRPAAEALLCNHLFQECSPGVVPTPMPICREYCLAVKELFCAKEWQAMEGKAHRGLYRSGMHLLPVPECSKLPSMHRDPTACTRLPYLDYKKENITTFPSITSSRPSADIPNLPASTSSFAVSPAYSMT

[5] = molecular target: T1, mECD: full-length extracellular region …; assay: bead-binding assay, Fab format: biotinylated antigen on streptavidin beads, flow cytometry, 1:1 fit; average ± s.d., n=3
[6] = molecular target: T2, hFz: Fz domain and C-terminal flanking …; assay: as above
[7] = molecular target: T3, hECD: full-length extracellular region …; assay: as above
[8] = molecular target: T4, mFz: Fz domain and C-terminal flanking …; assay: as above
[9] = molecular target: T1, mECD: full-length extracellular region …; assay: bead-binding titration, Fab format: antigen immobilized on streptavidin beads, MFI by flow cytometry, curve is the 1:1 fit; remark: listed apart in the source
[10] = molecular target: T2, hFz: Fz domain and C-terminal flanking …; assay: as above; remark: listed apart in the source
[11] = molecular target: T3, hECD: full-length extracellular region …; assay: as above; remark: listed apart in the source
[12] = molecular target: T4, mFz: Fz domain and C-terminal flanking …; assay: as above; remark: listed apart in the source
[13] = molecular target: T5, mouse MuSK (mouse, UniProt Q61006 22-494, limits assumed); assay: Biacore T200, MuSK on chip (200RU), 22.2 nM Fab, dissociation pH 5.5
T5 construct: Coated on ELISA plates or on the Biacore chip; also called full length mouse MuSK; mouse MuSK (in house produced in HEK293 cells)
T5 sequence (looked up): T1 sequence (looked up)
Experimental: (§1) In order to study pH dependent binding of the antibodies described herein to MuSK, a Biacore T200 was used. Briefly, a CMS chip was coated with human and mouse MuSK (200RU) and 22.2 nM of Fab was applied and kinetic parameters calculated. Association was done at pH7.4, dissociation was done at pH 7.4 and also at pH 5.5. The following Fabs were tested, X2, X2m4, X3, X9, X17, 3B2 and 3B2g2m1 (Table 10 and FIG. 23). […] Binding affinity at pH 5.5 is very low, resulting in a rapid dissociation at endosomal pH allowing 3B2g2m1 to recycle.

[14] = molecular target: T6, human MuSK (human, UniProt O15146 24-495); assay: as above
T6 construct: Recombinant protein coated on ELISA plates (R&D Systems cat. 10189-MK) or on the Biacore chip; also called human muscle-specific tyrosine protein kinase; full length human MuSK
T6 sequence: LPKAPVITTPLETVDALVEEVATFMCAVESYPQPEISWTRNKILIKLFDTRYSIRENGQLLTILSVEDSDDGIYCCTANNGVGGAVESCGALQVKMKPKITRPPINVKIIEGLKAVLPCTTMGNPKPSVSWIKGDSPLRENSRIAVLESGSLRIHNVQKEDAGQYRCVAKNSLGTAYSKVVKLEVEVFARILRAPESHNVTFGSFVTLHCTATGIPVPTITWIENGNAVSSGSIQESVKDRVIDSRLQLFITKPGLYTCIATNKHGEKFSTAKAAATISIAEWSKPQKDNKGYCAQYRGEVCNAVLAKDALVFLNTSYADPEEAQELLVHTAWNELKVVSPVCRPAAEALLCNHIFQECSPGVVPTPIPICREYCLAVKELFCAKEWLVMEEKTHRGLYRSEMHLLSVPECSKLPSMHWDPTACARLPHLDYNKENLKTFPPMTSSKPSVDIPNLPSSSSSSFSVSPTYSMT
Experimental: as §1

[15] = molecular target: T5, mouse MuSK; assay: Biacore T200, MuSK on chip (200RU), 22.2 nM Fab, dissociation pH 7.4
Experimental: as §1

[16] = molecular target: T6, human MuSK; assay: as above
Experimental: as §1

[17] = molecular target: T5, mouse MuSK; assay: Biacore, MuSK on chip (200RU), Fab dilution series
Excerpt: (§2) For affinity determination, a CMS chip was coated with either human or mouse MuSK (200RU) and a dilution series of the antibodies (mAbs and Fabs) was applied in order to be able to calculate the affinity.

[18] = molecular target: T6, human MuSK; assay: Biacore, MuSK on chip (200RU), Fab dilution series
Excerpt: as §2

[19] = molecular target: T5, mouse MuSK; assay: Biacore T200, off rate at pH 5.5 against pH 7.4
Experimental: as §1

[20] = molecular target: T6, human MuSK; assay: Biacore T200, off rate at pH 5.5 against pH 7.4
Experimental: as §1

B1: X1 Fab (Fab, V domains shown)
VH: EVQLVESGGGLVQPGGSLRLSCAASGFTFSSSSIHWVRQAPGKGLEWVASISSSSGSTSYADSVKGRFTISADTSKNTAYLQMNSLRAEDTAVYYCARKYWSQYYWAHYYGGLDYWGQGTLVTVSS
VL: DIQMTQSPSSLSASVGDRVTITCRASQSVSSAVAWYQQKPGKAPKLLIYSASSLYSGVPSRFSGSRSGTDFTLTISSLQPEDFATYYCQQSSSSLITFGQGTKVEIK
notes: m52 is the same Fab tetramerized with streptavidin; also called Fab Clone X1 (monovalent Fab format)
B1 was tested, and the “EC50 (read off the curve)” value [1] was ~1 nM, the “EC50 (read off the curve)” value [2] was ~0.4 nM and the “EC50 (read off the curve)” value [3] was ~0.5 nM. For the same binder, the “EC50 (read off the curve)” value [4] was ~1 nM, the Kd [5] was 1.34 nM and the Kd [6] was 0.39 nM. It also gave a Kd [7] of 0.55 nM and a Kd [8] of 1.09 nM.

B2: X13 Fab (Fab, V domains shown)
VH: EVQLVESGGGLVQPGGSLRLSCAASGFTISSSSIHWVRQAPGKGLEWVASISSSSGSTSYADSVKGRFTISADTSKNTAYLQMNSLRAEDTAVYYCARSSEHWYTIGYYGIDYWGQGTLVTVSS
VL: DIQMTQSPSSLSASVGDRVTITCRASQSVSSAVAWYQQKPGKAPKLLIYSASSLYSGVPSRFSGSRSGTDFTLTISSLQPEDFATYYCQQSYGSFSLITFGQGTKVEIK
notes: also called Fab Clone X13
With B2 the “EC50 (read off the curve)” value [9] was ~2 nM, the “EC50 (read off the curve)” value [10] was ~2 nM and the “EC50 (read off the curve)” value [11] was ~2 nM. The “EC50 (read off the curve)” value [12] was ~2 nM, the Kd [5] was 2.41 nM and the Kd [6] was 1.7 nM. For the same binder, the Kd [7] was 2.39 nM and the Kd [8] was 1.56 nM.

B3: 3B2 Fab (Fab, V domains shown)
VH: ELQLVESGGGLVQPGGSLRLSCAASGFTFDDYGMSWVRQAPGKGLEWVSAIPWNGGSTYYKESVKGRFTISRDNAKKTLYLQMNSLKSEDTAVYYCAKRSGRIAFGALDAWGQGTLVTVSS
VL: QAVVTQEPSLSVSPGGTVTLTCGLSSGSVTSSNYPDWYQQTPGQAPRGLIYSTDSRHSGVPSRFSGSISGNKAALTITGAQSEDEADYYCGLYMYSGSKNYVFGGGTKLTVL
notes: Fab format; also called Fab 3B2
For B3, the koff [13] was 0.109 s⁻¹, the koff [14] was 0.0224 s⁻¹ and the koff [15] was 0.00347 s⁻¹. It also gave a koff [16] of 0.00388 s⁻¹, a Kd [17] of 1.52 nM and a Kd [18] of 3.18 nM. For the same binder, the “Ratio pH 5.5/7.4 of off rate” value [19] was 31.5 and the “Ratio pH 5.5/7.4 of off rate” value [20] was 5.8.

Reference: US20230151091A1 (NEW YORK UNIVERSITY, published 2023)
